Source: US20100285583A1, “COMPOUNDS AND METHODS FOR INHIBITING PLATELET AGGREGATION” (priority 2009, published 2010)

Tests used:
[1] = Protein-lipid overlay assay, sulfatides; assay type: binding; settings: Sphingolipid strips, GST-Dab2 PTB
Method: Membrane strips (SphingoStrips™) spotted with 100 pmol of sphingolipids were purchased from Echelon Research Laboratories. Membrane strips were incubated with 0.1 μg/ml of the Dab2 PTB domain or its mutants in 20 mM Tris-HCl (pH 8.0), 150 mM NaCl, 0.1% Tween-20 and 3% fatty acid-free bovine serum albumin overnight at 4° C. Following four washes with the same buffer, proteins bound to the membrane strips were probed with rabbit anti-GST antibody (Santa Cruz Biotech). Donkey anti rabbit-horse radish peroxidase (HRP) antibody was obtained from GE Healthcare. Detection was carried out using ECL reagent (Pierce). Also, lipid strips were prepared by spotting 1 μl of either sulfatides or PtdIns(4,5)P2 dissolved in chloroform:methanol:water (1:2:0.8 and 65:35:8, respectively) onto Hybond-C extra membranes (GE Healthcare) and protein binding was monitored as described above. Bound protein was quantified using the AlphaImager program and binding was calculated as a percentage of GST-PTB binding to 100 pmoles of spotted lipid.

[2] = Liposome-binding assay, sulfatide liposomes; settings: liposomes with sulfatides
Method: Lipid stocks including sulfatides, PE, PS, and PtdIns(4,5)P2 were dissolved in chloroform:methanol:water (1:2;0.8, 65:35:8, 65:35:4 and 65:35:8, respectively), whereas cholesterol and PC were dissolved in chloroform:methanol (1:1). Sulfatides liposomes were prepared in a weight ratio of 1:1:1:4 of PC:PE:cholesterol:sulfatides. PtdIns(4,5)P2 liposomes were prepared in a percent ratio of 50:20:10:10:10 of PC:PE:PS:cholesterol:PtdIns(4,5)P2. Controls were prepared by adjusting the ratios with PC. Lipid films were generated by lyophilization overnight and hydrated in 20 mM Tris-HCl (pH 6.8), 100 mM NaCl, 2 mM dithiothreitol (DTT) at 1 mg/mL and freeze-thawed 3 times. Liposomes were sonicated and further pelleted and suspended in 4 mg/mL. Ten μg of protein were incubated with 125 μg of total lipids for 20 min at RT. Liposome-bound and free-protein samples were separated by centrifugation and analyzed by SDS-PAGE. Bands were quantified using AlphaImager, and the percentage of total protein each fraction contained was calculated from the total protein.

[3] = Surface plasmon resonance, immobilized sulfatide liposomes; settings: SPR, estimated; read-out: dissociation constant (KD), sulfatide binding
Method: (§1) Surface plasmon resonance (SPR) binding experiments were performed on a BIAcore X instrument using L1 sensorchips coated with ˜0.5 mM of mixed sulfatides or PtdIns(4,5)P2 size calibrated liposomes. N-PTB domain or its mutants binding experiments were performed in a degassed solution containing 10 mM Tris-HCI (pH 7.4) and 150 mM NaCl. This buffer was used during equilibration, association and dissociation phases. Proteins were added to this buffer at the indicated concentrations. Regeneration of the phospholipid bilayer after dissociation phase was carried out using 20 mM NaOH. For competition SPR, increasing molar amounts of dioctanoyl PtdIns(4,5)P2 were preincubated with 5 μM N-PTB for 20 min at room temperature. The entire reaction was then exposed to an L1 sensorchip containing immobilized sulfatide liposomes (˜0.5 mM).

[4] = Competition SPR, PtdIns(4,5)P2 pre-incubated protein on sulfatide liposomes; settings: 5 μM protein pre-incubated with increasing PtdIns(4,5)P2; read-out: IC50 of PtdIns(4,5)P2 competition for sulfatide binding
Method: as §1

[5] = test system: platelet and leukocyte mixtures; experiment: Platelet-leukocyte aggregation assay (flow cytometry, CD42b on leukocytes); assay type: cell-based, human; settings: ADP 30 μM, sulfatide liposomes
Method: Whole blood was collected as indicated above and centrifuged at 200 g to separate the blood from plasma and red blood cell fractions. Plasma and buffy coat layer were carefully removed and diluted 1:1 with PBS. The dilution was then layered onto a Ficoll Plus gradient and spun at 200 g for 20 min. The enriched platelet and leukocyte layer was removed, diluted with PBS, centrifuged and the pellet resuspended in Tyrode's Albumin buffer to a concentration of ˜3×10^5 platelets/μL and 3×10^3 leukocytes/μL. Isolated platelet-leukocyte mixtures were remained unactivated or activated with ADP (30 μM). Both unactivated and activated platelets were incubated for 10 min at 23° C. with liposomes (50 μg/mL) either without (liposomes control) or with sulfatides, and N-PTB constructs (1 μM). Reactions were fixed with 1% formalin and incubated with APC-labeled CD42b (Biolegend) and FITC-labeled CD45 (Biolegend) antibodies. Bound antibodies were quantified using a FacsAria flow cytometer.
Platelet P-selectin mediates platelet-leukocyte interactions through binding of leukocyte PSGL-1 (Merten 2005). […] Platelet binding of leukocytes was quantified through the fluorescence of allophycocyanin (APC) labeled anti-human CD42b (platelet marker) detected on leukocytes. The fluorescence was detected using flow cytometry analysis of platelet-leukocyte mixtures.

[6] = CD spectroscopy, secondary structure composition; assay type: physicochemical; settings: 5 μM construct, DICHROWEB/CDSSTR
Method: Spectra were collected using a Jasco J-720 spectropolarimeter. Far-UV CD spectra were measured for Dab2 PTB constructs (5 μM in 5 mM Tris, 100 mM potassium fluoride, 100 μM DTT, pH 6.8) using a 1 mm-slit-width cuvette. Five accumulated scans were recorded for each sample between 190 and 260 nm at 20° C. in increments of 0.5 nm. Background of buffer alone was subtracted from each spectrum. Raw data were converted to mean residue ellipticity and analyzed for secondary structure composition using DICHROWEB and deconvoluted using CDSSTR.

binding to sphingolipids [1]: preferentially bound to sulfatides | sulfatide binding [2]: bound to sulfatide-enriched liposomes | Kd [3]: ~1930 nM | IC50 [4]: ~2000 nM
B1: N-PTB: N-terminal phosphotyrosine binding domain (residues 1-241) of human Disabled-2 (Dab2), expressed as GST-fusion in E. coli (protein)
chain: MSNEVETSATNGQPDQQAAPKAPSKKEKKKGPEKTDEYLLARFKGDGVKYKAKLIGIDDVPDARGDKMSQDSMMKLKGMAARGRSQGQHKQRIWVNISLSGIKIIDEKTGVIEHEHPVNKISFIARDVTDNRAFGYVCGGEGQHQFFAIKTGQQAEPLVVDLKDLFQVIYNVKKKEEEKKKIEEASKAVENGSEALMILDDQTNKLKSGVDQMDLFGDMSTPPDLNSPTESKDILLVDLNS
inhibition of platelet-leukocyte binding [5]: decreased platelet binding to leukocytes | inhibition of platelet-leukocyte binding ([5]; listed as N-PTB^4M): no inhibition of platelet-leukocyte binding | Helix 1 [6]: 8% | Helix 2 [6]: 10% | Strand 1 [6]: 17% | Strand 2 [6]: 10% | Turns [6]: 23% | Unordered [6]: 31%
